Results: US20220127377A1 (DIACCURATE, published 2022)

Target: T1, human PLA2-GIB (mature, active form) (human, UniProt P04054 23-148)
T1 construct: Recombinant human PLA2GIB standard in the ELISA, and endogenous PLA2GIB of patient plasma in the functional assays; also called GIBsPLA2; sPLA2-GIB
Test: sandwich ELISA, coated capture mAb, recombinant human standard
Procedure: Sandwich ELISAs specific to proPLA2-GIB, PLA2GIB or both forms were performed using mAbs previously generated. For the detection of proPLA2GIB, the #8G11 mAb was used as a capture antibody and the #1C11 mAb was used as a revelation mAb. For the detection of PLA2GIB, the #14G9 mAb was used as a capture antibody and the #1C11 mAb was used as a revelation mAb. For the detection of both forms, the #7A10 mAb was used as a capture antibody and the #1C11 mAb was used as a revelation mAb. Typical assay conditions were as follows: #8G11- or #14G9-coated microplate was incubated for one hour with recombinant human proPLA2GIB or PLA2GIB standards (varying concentrations of protein in assay buffer) to generate a calibration curve. EDTA plasma samples were diluted (5- to 50-fold) in dilution buffer to their respective wells and the ELISA plate was incubated for 1 h at room temperature. […] Following washing with PBS containing 0.05% Tween 20, the binding of mAb was detected by treatment with a Streptavidin-HRP conjugate for 15 min at room temperature. TMB was added, reaction was stopped and absorbance at 450 nm was determined on a microplate reader. Signals were analyzed with a 4-parameter fit analysis using Prism™ software (Graph Pad).

T1 sequence (P04054 23-148): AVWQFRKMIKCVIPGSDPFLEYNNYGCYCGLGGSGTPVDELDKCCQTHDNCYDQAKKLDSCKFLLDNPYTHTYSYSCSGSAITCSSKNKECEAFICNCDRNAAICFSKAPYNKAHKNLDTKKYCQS

binding result: binds
B1: monoclonal antibody 14G9 (antibody, V domains shown)
VH: QVQLQQPGAELVKPGASVKLSCKASGYTFTNYWIHWVKRRPGQGLEWIGNIDPSDTRTHYNQKFKDKATLAVDKSSSTAYMQLSSLTSEDSAVFYCARQTLYYEALDYWGQGTTLTVSS
VL: DIVMTQSHKLMSTSVGDRVSITCKASQDVSTAVAWYQEKPGQSPKLLIYWASTRHTGVPNRFTGSRSGTDYTLTISSVQAEDLALYYCQQDYSTPPTFGAGTKLELKR
notes: also called #14G9 mAb; clone 14G9
